Results as given in patent publication US20150299263A1 (FACTOR THERAPEUTICS, published 2015).
Where no end group is shown, it is not given here.

B1: Non-binding negative control VN-peptide (KTYLFKGSQYWRFEDG) (peptide)
peptide: KTYLFKGSQYWRFEDG
modifications: also: capped by acetylation and immobilised on array, free peptide in migration assays
notes: On the array it was immobilised and capped by acetylation; in the migration assays it was a free peptide; also called Pneg; negative peptide
B2: VN peptide P8 (RVNLRTRRVDTVDPPYPRS) (peptide)
peptide: RVNLRTRRVDTVDPPYPRS
notes: Free synthetic peptide (Mimotopes) in the migration and growth assays; The array carried only its overlapping 16-mers 8A-8D; also called Peptide 8; motif-8 mimic
B3: VN-peptide 1B (array grid A14) (peptide)
peptide: DELCSYYQSCCTDYTA
modifications: not fully specified (N-terminus); cysteine pairing not given here; also: free end capped by acetylation, immobilised on cellulose membrane (SPOT synthesis)

Columns and labels:
[1] = biological target: T1, Human receptor grade IGF-II (insulin-like growth factor II) (human, UniProt P01344 25-91); assay: VN-peptide array, ligand overlay, immunoblot/ECL
T1 construct: Bought recombinant protein, overlaid in solution on the VN-peptide array

[2] = biological target: T2, Human receptor grade IGFBP-3 (insulin-like growth factor binding protein 3) (human, UniProt P17936 28-291); assay: VN-peptide array, ligand overlay, immunoblot/ECL
T2 construct: Bought recombinant protein, overlaid in solution on the VN-peptide array

[3] = biological target: T3, Human receptor grade IGFBP-5 (insulin-like growth factor binding protein 5) (human, UniProt P24593 21-272); assay: VN-peptide array, ligand overlay, immunoblot/ECL
T3 construct: Bought recombinant protein, overlaid in solution on the VN-peptide array

[4] = biological target: T1, Human receptor grade IGF-II …; assay: rests on the VN-peptide array
[5] = biological target: T2, Human receptor grade IGFBP-3 …; assay: rests on the VN-peptide array
[6] = biological target: T1, Human receptor grade IGF-II …; assay: VN-peptide array, ligand overlay, immunoblot/ECL, TotalLab spot intensity
Experimental: Methanol or ethanol was used to enhance the rehydration of peptide spots that might be hydrophobic. The peptides spotted onto the membranes were activated by incubating in 3 mL of 70% ethanol for five mins. The membranes were subsequently washed three times, 10 minutes each, in 10 mL TBS (Tris Buffered Saline; 8 g NaCl, 0.2 g KCl and 6.1 g Tris Base into 1000 mL of milliQ water, pH 7) with gentle rocking. Membrane blocking was performed by incubating in 10 mL casein-based membrane blocking buffer (MBS; Sigma-Aldrich) overnight at 4° C. The following day, the membranes were washed twice, 10 minutes each, in 10 mL TBS-T (TBS+0.05% Tween-20; pH 7).
Ligands used to test binding to VN-peptides were IGFBP-3, IGFBP-5 and IGF-II. For ligand binding, four separate solutions of 1 μg/mL ligand in 10 mL MBS buffer were prepared and each membrane was incubated in one of the four ligand solutions overnight at 4° C., with gentle rocking. […] The following day, the membranes were washed three times, 10 minutes each, in 10 mL TBS-T.
The binding of the ligands to peptides within the membrane was detected using immunoblotting. The membranes were incubated overnight at 4° C. with 10 mL primary antibody solution (in MBS buffer) targeting the respective ligands. The antibodies used were anti-IGFBP-3 (1:10,000), anti-IGFBP-5 (1:10,000) and anti-IGF-II (1:5000) to detect IGFBP-3, IGFBP-5 and IGF-II respectively. The following day, the membranes were washed three times, 10 minutes each, in 10 mL TBS-T and incubated with 10 mL HRP-conjugated secondary IgG antibody diluted 1:15,000 in MBS buffer for 1 hour at room temperature. Following a further three washes of 10 minutes each, the peptide spots were visualized using ECL. The membranes were exposed onto x-ray films and developed using a film processor (AGFA CP 1000), or were imaged directly using the ChemiDoc™ XRS system (BioRad).

T1 sequence (P01344 25-91 limits assumed): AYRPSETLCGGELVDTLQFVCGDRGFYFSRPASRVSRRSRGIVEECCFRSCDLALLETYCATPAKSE
T2 sequence (P17936 28-291 limits assumed): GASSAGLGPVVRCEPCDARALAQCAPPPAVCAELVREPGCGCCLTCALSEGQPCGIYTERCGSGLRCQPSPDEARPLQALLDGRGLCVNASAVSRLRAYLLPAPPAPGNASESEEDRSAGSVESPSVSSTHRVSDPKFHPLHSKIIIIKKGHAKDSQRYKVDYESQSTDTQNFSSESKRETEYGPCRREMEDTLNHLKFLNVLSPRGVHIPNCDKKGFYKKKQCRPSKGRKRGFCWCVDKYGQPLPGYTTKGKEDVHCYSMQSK
T3 sequence (P24593 21-272 limits assumed): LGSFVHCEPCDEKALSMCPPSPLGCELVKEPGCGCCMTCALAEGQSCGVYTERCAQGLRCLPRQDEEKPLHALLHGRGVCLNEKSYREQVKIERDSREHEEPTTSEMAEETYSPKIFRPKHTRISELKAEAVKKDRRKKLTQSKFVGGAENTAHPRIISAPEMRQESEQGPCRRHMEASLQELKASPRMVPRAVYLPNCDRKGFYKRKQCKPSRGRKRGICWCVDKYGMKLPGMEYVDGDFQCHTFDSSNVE

| Binder | binding result [1] | binding result [2] | binding result [3] | binding result [4] | binding result [5] | Intensity (against -ve control) [6] |
| --- | --- | --- | --- | --- | --- | --- |
| B1 | no binding (tested: 1 µg/mL ligand) | no binding (tested: 1 µg/mL ligand) | no binding (tested: 1 µg/mL ligand) | – | – | – |
| B2 | – | – | – | binds | binds | – |
| B3 | – | binds | binds | – | – | 12 fold over negative controls |
